Laboratory results: US20050064384A1 (published 2005)

B1: HA-NORE1 (other)
chain: MYPYDVPDYAMASPAIGQRPYPLLLDPEPPRYLQSLGGTEPPPPARPRRCIPTALIPAAGASEDRGGRRSGRRDPEPTPRDCRHARPVRPGLQPRLRLRPGSHRPRDVRSIFEQPQDPRVLAERGEGHRFVELALRGGPGWCDLCGREVLRQALRCANCKFTCHSECRSLIQLDCRQKGGPALDRRSPGSTLTPTLNQNVCKAVEETQHPPTIQEIKQKIDSYNSREKHCLGMKLSEDGTYTGFIKVHLKLRRPVTVPAGSGPSPSMDAIKEVNPAATTDKRTSFYLPLDAIKQLHISSTTTVSEVIQGLLKKFMVVDNPQKFALFKRIHKDGQVLFQKLSIADYPLYLRLLAGPDTDVLSFVLKENETGEVEWDAFSIPELQNFLTILEKEEQDKIHQLQKKYNKFRQKLEEALRESQGKPG
notes: also called recombinant hemagglutinin (HA)-tagged NORE fusion polypeptide
B2: GST-NORE (7-413) (other, not shown: a dimerising Fc or GST)
chain: GQRPYPLLLDPEPPRYLQSLGGTEPPPPARPRRCIPTALIPAAGASEDRGGRRSGRRDPEPTPRDCRHARPVRPGLQPRLRLRPGSHRPRDVRSIFEQPQDPRVLAERGEGHRFVELALRGGPGWCDLCGREVLRQALRCANCKFTCHSECRSLIQLDCRQKGGPALDRRSPGSTLTPTLNQNVCKAVEETQHPPTIQEIKQKIDSYNSREKHCLGMKLSEDGTYTGFIKVHLKLRRPVTVPAGSGPSPSMDAIKEVNPAATTDKRTSFYLPLDAIKQLHISSTTTVSEVIQGLLKKFMVVDNPQKFALFKRIHKDGQVLFQKLSIADYPLYLRLLAGPDTDVLSFVLKENETGEVEWDAFSIPELQNFLTILEKEEQDKIHQLQKKYNKFRQKLEEALRESQGKPG

What was measured:
[1] = biological target: T1, FLAG-tagged wild type (wt) MST1 (mouse, UniProt Q9JI11 1-487); test: anti-FLAG immunoprecipitation from co-transfected HEK293 cells, FLAG peptide elution, anti-HA immunoblot
T1 construct: also called FLAG-MST1; full-length MST1
T1 sequence: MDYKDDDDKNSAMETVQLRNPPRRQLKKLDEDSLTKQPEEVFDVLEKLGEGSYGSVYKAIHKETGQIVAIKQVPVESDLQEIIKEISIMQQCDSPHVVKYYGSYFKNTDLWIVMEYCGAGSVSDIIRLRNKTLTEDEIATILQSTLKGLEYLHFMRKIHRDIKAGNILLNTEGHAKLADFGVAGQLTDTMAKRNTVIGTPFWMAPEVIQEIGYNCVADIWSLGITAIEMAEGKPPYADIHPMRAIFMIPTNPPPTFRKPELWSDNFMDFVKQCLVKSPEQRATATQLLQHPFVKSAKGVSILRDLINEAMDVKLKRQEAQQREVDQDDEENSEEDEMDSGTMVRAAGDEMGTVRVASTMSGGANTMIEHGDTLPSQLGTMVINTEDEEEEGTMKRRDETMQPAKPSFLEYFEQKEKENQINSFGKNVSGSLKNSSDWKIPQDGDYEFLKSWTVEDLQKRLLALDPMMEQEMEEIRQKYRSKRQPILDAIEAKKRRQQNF
Method: (§2) FLAG-tagged proteins were immunopreciptated with anti-FLAG M2-agarose, eluted with the excess of the FLAG peptide. The eluates were analyzed by immunoblotting after SDS-PAGE. Upper panel: proteins immunoprecipitated (IP) by FLAG-agarose probed with anti-HA antibody 12CA5 (α-HA). Middle panel: cell extracts probed with anti-FLAG antibody (α-FLAG).

[2] = biological target: T2, FLAG-tagged SOK (human, UniProt O00506 1-426); test: anti-FLAG immunoprecipitation from co-transfected HEK293 cells, anti-HA immunoblot
T2 construct: also called SOK1
Method: as §2

[3] = biological target: T3, FLAG-tagged GCK (human, UniProt Q12851 1-820); test: as above
T3 sequence: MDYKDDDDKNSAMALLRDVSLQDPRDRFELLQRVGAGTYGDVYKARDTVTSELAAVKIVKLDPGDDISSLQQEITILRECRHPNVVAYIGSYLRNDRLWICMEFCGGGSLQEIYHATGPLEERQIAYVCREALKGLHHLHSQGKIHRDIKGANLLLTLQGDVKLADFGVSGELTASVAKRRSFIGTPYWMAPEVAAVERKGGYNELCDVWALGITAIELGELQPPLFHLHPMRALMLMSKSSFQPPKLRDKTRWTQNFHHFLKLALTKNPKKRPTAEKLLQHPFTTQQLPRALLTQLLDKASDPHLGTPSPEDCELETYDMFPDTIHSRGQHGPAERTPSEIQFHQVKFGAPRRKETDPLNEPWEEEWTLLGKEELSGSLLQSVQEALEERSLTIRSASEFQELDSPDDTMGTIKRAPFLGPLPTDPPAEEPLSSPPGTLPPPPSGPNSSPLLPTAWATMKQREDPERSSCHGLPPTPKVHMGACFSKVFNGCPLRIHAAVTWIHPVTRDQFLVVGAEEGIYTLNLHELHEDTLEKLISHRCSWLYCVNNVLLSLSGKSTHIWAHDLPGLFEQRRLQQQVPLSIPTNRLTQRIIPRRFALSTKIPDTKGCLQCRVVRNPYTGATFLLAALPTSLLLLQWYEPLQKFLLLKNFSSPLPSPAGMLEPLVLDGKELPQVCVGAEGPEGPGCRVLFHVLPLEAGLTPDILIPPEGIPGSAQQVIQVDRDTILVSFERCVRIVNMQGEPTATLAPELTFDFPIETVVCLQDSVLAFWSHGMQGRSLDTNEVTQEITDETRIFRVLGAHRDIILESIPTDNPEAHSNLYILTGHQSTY
Method: as §2

[4] = biological target: T4, FLAG-tagged Ki-RasG12V (Meleagris gallopavo (Wild turkey), UniProt P79800 1-188); test: in vitro binding of FLAG-Ras from HEK293 extracts to GST fusion protein immobilized on GSH-agarose, anti-FLAG immunoblot
T4 construct: also called FLAG Ki-RasG12V
Text: (§1) Aliquots of extracts from these cells (as shown in the center panel) were adsorbed to the immobilized GST proteins; the beads were washed extensively and eluted with SDS.

[5] = biological target: T5, FLAG-tagged Ha-RasG12V (human, UniProt P01112 1-189); test: as above
T5 construct: also called FLAG-V12RAS; FLAG Ha-RasG12V
Text: as §1

T2 sequence (O00506 other isoform, or with tags, fused parts or gaps limits assumed): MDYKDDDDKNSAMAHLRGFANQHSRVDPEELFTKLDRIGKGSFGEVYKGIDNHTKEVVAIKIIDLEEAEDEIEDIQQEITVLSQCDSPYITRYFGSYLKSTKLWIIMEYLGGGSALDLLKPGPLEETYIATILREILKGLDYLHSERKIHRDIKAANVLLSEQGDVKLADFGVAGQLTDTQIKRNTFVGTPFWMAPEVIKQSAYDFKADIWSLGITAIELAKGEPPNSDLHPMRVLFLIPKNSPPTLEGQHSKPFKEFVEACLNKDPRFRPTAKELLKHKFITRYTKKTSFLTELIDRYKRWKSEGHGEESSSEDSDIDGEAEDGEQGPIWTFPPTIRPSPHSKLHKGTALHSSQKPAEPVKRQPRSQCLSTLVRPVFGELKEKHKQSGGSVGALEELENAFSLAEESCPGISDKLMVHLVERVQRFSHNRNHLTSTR

Binder	binding result [1]	binding result [2]	binding result [3]	binding result [4]	binding result [5]
B1	binds	no binding	no binding		
B2				binds	binds
